Data on 3 molecules can be found in paper PMC6271572, “One-step affinity purification of fusion proteins with optimal monodispersity and biological activity: application to aggregation-prone HPV E6 proteins” (Microbial Cell Factories, 2018).

Several values for one entry are separate records, joined by “and”; a condition that tells them apart may be missing. Equal values may be shown once.

The target in series [1] is E6AP LXXLL motif (Homo sapiens) (UniProt Q05086). As to the kind of experiment: SPR. As to conditions: cited from earlier work.
Series [2] deals with E6APwt, 16-mer LXXLL motif peptide of E6AP. As to the kind of experiment: SPR; Biacore T200, 25 °C; biotinylated peptide reversibly captured on CAP chip (Biotin CAPture kit), MBP-E6 as analyte in two-fold dilutions from 10 µM; Tris 50 mM pH 8, NaCl 400 mM, DTT 2 mM, 0.005% polysorbate 20; steady-state analysis, 1:1 model; protein samples purified on resin N1 or N2. Background: Surface plasmon resonance follows binding to a sensor surface in real time, without labels.

Series [3] concerns the molecule itself. Briefly: SEC; analytical SEC on Superdex 200 Increase 5/150 GL in Buffer A (Tris 50 mM pH 8, NaCl 400 mM, DTT 2 mM), A280; monomer and oligomer peaks assigned by column calibration; samples from different resins, elution methods and contact times. Background: Size exclusion chromatography separates by hydrodynamic size, large species first.

Consider HPV16 E6 (from UniProt P03126), for which the Kd in series [1] is 4.15 µM. “MBP-fused HPV16 E6 F47R 4C/4S (natural protein)”: the Kd in series [2] is 1.6 µM and 2 µM.

B1: MBP-fused HPV8 E6 (natural protein)
chain: MDGQDKASNLDTNKDELPSTIKELAEALGIPLQDCLVPCNFCGNFLDFLELCEFDKKRLCLIWKNYVVTACCRCCCVATATFEFNEYYEQTVLGRDIELATGRSIFEIDVRCQNCLSFLDIIEKLDCCGRGRPFHKVRGGWKGVCRLCKHLYHDW
notes: Printed order of the fusion: MBP-6His-TEV site-E6 (vector pETM-41, NcoI/Acc65I sites); tags were not cleaved off; Expected MW 60.9 kDa; also called MBP-8E6; not shown: MBP, N-terminal, kept
With B1, the binding result in series [3] is “binds”.

The Kd is the equilibrium constant for the complex coming apart.
